Reference: PMC5477490

Target: 3E1 Fab, P01857;P01834
Conditions: parent: est. 100; read off a plot

Row | Substance | percent of parent [%]
1 | full-length, wild-type HA from A/Washington/05/2011 (H1N1) HA2:Y34M | 100
2 | full-length, wild-type HA from A/Washington/05/2011 (H1N1) HA2:D19A | 100
3 | full-length, wild-type HA from A/Washington/05/2011 (H1N1) HA1:H38S | 97
4 | full-length, wild-type HA from A/Washington/05/2011 (H1N1) HA1:H18L | 100
